Assay results as given in patent US20140100120, “METHODS OF X-APTAMER GENERATION AND COMPOSITIONS […]” (AM Biotechnologies, LLC, published 2014).

B1: Motif 4 phospho NH2 (ssDNA)
DNA: GATCTGCAATGTAACCATAGACA
modifications: X=amino-dU; phosphodiester [n positions 10 = modified dU]
B2: Motif 2 phospho NH2 (ssDNA)
DNA: CTGTTAGGGAACCAAGACGA
modifications: X=amino-dU; phosphodiester [n positions 2,4 = modified dU]
B3: Motif 2 phospho ADDA (ssDNA)
DNA: CTGTTAGGGAACCAAGACGA
modifications: X=ADDA-dU; phosphodiester [n positions 2,4 = modified dU]
B4: Motif 2 thio NH2 (ssDNA)
DNA: CTGTTAGGGAACCAAGACGA
modifications: fully monothioate PS; X=amino-dU [n positions 2,4 = modified dU]
B5: Motif 3 thio NH2 (ssDNA)
DNA: GCCTGCAAGACGTCCATAGACAC
modifications: fully monothioate PS; X=amino-dU [n positions 13 = modified dU]
B6: Motif 4 thio ADDA (ssDNA)
DNA: GATCTGCAATGTAACCATAGACA
modifications: fully monothioate PS; X=ADDA-dU [n positions 10 = modified dU]
B7: Motif 3 phospho ADDA (ssDNA)
DNA: GCCTGCAAGACGTCCATAGACAC
modifications: X=ADDA-dU; phosphodiester [n positions 13 = modified dU]
B8: Motif 3 phospho NH2 (ssDNA)
DNA: GCCTGCAAGACGTCCATAGACAC
modifications: X=amino-dU; phosphodiester [n positions 13 = modified dU]
B9: Motif 4 thio NH2 (ssDNA)
DNA: GATCTGCAATGTAACCATAGACA
modifications: fully monothioate PS; X=amino-dU [n positions 10 = modified dU]
B10: Motif 2 thio ADDA (ssDNA)
DNA: CTGTTAGGGAACCAAGACGA
modifications: fully monothioate PS; X=ADDA-dU [n positions 2,4 = modified dU]
B11: Motif 5 thio NH2 (ssDNA)
DNA: AGATACAGTAAACGTCCATAGACAC
modifications: fully monothioate PS; X=amino-dU [n positions 4,15 = modified dU]
B12: Motif 3 thio ADDA (ssDNA)
DNA: GCCTGCAAGACGTCCATAGACAC
modifications: fully monothioate PS; X=ADDA-dU [n positions 13 = modified dU]
B13: Motif 5 thio ADDA (ssDNA)
DNA: AGATACAGTAAACGTCCATAGACAC
modifications: fully monothioate PS; X=ADDA-dU [n positions 4,15 = modified dU]
B14: Motif 4 phospho ADDA (ssDNA)
DNA: GATCTGCAATGTAACCATAGACA
modifications: X=ADDA-dU; phosphodiester [n positions 10 = modified dU]
B15: Motif 5 phospho NH2 (ssDNA)
DNA: AGATACAGTAAACGTCCATAGACAC
modifications: X=amino-dU; phosphodiester [n positions 4,15 = modified dU]
B16: Motif 5 phospho ADDA (ssDNA)
DNA: AGATACAGTAAACGTCCATAGACAC
modifications: X=ADDA-dU; phosphodiester [n positions 4,15 = modified dU]

Molecular target: CD44 hyaluronic acid binding domain (CD44-HABD) (UniProt P16070 P16070:20-178)
Sequence (P16070 20-178, one chain of several): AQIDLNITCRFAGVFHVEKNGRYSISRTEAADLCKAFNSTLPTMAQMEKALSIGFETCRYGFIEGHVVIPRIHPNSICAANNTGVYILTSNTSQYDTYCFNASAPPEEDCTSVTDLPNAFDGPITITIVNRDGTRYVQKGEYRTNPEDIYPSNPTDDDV
Experiment: filter; 20 mM Tris pH 8.0, 150 mM NaCl, RT
Conditions: label: biotin
Experimental: The equilibrium binding constants of selected XAs for CD44-HABD were determined by a filter binding assay. The biotinylated XAs (1 nM) were incubated with varying concentrations of CD44-HABD in 50 μL of 20 mM Tris, pH 8.0, 150 mM NaCl for 40 min at room temperature and then transferred to a 96-well dot-blot apparatus and filtered under vacuum onto nitrocellulose membranes, which retain the CD44-HABD along with any bound XAs. The amount of biotinylated XA retained at each spot was determined by chemiluminescent detection using the Chemiluminescent Nucleic Acid Detection Module (Thermo Scientific) following the manufacturer's instructions. The chemiluminescent signals were collected on a Chemimager (Alpha Innotech). Image analysis and quantification of spot intensities were performed using ImageJ (version 1.42q). Binding analysis was based on the spot intensities on the nitrocellulose membranes with subtraction of background spot intensity due to the buffer effect from all the data points. Saturation binding curves were generated by using GraphPad Prism with curve fits assuming a single binding site. The NH₂ XA column lists KDs for XAs where X=amino-dU. The ADDA XA column lists KDs for XAs where X=ADDA-dU.
The equilibrium binding constants of the small constructs were determined by the filter binding assay. The derived equilibrium binding constants of the above small XA constructs are shown below in Table 4.

Binder | Kd (stem-loop (predicted)) [nM] | Kd (hairpin (predicted)) [nM]
B1 | 6.8 | 
B2 |  | 43.1
B3 |  | 2
B4 |  | 48
B5 | 81.2 | 
B6 | 13.6 | 
B7 | 19.5 | 
B8 | 27.6 | 
B9 | 35.4 | 
B10 |  | 15.5
B11 | 18 | 
B12 | 64.8 | 
B13 | 10.1 | 
B14 | 2.1 | 
B15 | 13.8 | 
B16 | 3.9 | 
